Experimental data published in IntAct's records for PubMed 24525236.

Molecular target: flt3_human FLT3 (UniProt P36888)
Sequence (P36888 whole entry): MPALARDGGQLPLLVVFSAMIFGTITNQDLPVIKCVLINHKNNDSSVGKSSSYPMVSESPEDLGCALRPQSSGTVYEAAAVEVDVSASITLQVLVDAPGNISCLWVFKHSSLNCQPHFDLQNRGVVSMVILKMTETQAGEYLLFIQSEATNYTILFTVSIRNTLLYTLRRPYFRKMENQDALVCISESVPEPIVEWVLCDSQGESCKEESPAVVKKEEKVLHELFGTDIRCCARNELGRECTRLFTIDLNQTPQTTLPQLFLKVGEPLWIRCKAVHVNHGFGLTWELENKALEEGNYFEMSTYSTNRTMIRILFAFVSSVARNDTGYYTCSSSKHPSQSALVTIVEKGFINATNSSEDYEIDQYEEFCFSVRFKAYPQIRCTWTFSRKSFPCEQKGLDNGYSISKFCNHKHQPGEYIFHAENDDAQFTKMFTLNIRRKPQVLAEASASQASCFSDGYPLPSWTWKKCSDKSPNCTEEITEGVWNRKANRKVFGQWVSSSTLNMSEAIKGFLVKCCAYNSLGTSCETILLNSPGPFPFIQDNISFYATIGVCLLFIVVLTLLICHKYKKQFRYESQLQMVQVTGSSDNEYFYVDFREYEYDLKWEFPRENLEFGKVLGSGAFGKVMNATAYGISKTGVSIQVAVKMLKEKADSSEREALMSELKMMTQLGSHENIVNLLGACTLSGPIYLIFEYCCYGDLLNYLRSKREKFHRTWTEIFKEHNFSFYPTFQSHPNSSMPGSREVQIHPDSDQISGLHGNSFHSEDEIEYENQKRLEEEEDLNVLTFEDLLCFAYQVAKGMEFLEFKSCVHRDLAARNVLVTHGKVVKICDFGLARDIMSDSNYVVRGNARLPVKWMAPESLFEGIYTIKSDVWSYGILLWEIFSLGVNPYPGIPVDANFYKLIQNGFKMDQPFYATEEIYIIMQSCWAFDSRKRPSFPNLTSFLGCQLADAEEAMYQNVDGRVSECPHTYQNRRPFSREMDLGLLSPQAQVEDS

Tyrosine-protein kinase SYK (Homo sapiens) (from UniProt P43405) R195G;R197L
effect of a mutation on the interaction: decreasing interaction
